# Experiment: soluble on expression in E. coli; label from the status in PepcDB or PDB records
row,Sequence,soluble on expression in E. coli
1,MQDSVLGVMQPDGFQDIVAARFREARAGGLISTVFQIEIDDHTSLVERHGQRAAEVISTTSADRIAAVLRDRDAVTHLDTFKYAVCLEPVRQMDLELCIQLAGRIQAALEEPIALDATAVCITSSVGFCQQTKVLSRSGEAWLAAAGHALREAHLNGPGAIRAYSLEHHHHHH,not soluble
2,MQDTTLLQMITDDMVSARQLLELLQAESLILHGRDMSEMEQVLAQKQALVILLDQHGRKRSQVLAGMGLPANRSGLQQLASQSEVGEQLLTSSDELNALINECQTLNDQNGSLIQLQQISTAHQLRILNGGETPTLYDARGSTALRAKPRPLSQA,not soluble
3,MQEDTLTSRGNMPYSLNVLIPLSCDLRPPVPQAIHAGRVDHRELGFVHPVSPGDVVAEVLVPAGEHFSPEVAQHLIGEGCALGDASTEHTEGQGVPVVATRSGHLDWDERALAVRDTLVVDEDVTYHVGNIRYFGDLIVRGMVRVAFRVRARSLLVEGLIEGAFIECERLEARGGVKAGGSGRLRVRETVAAPFMENAIVHAGSHVVVSGSSLHNEIKSNASVQVAERLIGGMTAARDSITVGERLGGGMSTLTRVQVGYDPFLNTAVHRLEVQAQHVEEVMLSCAKLAGRGGRLGDKAKARGERYAAALKRLRRKLADLLARLDATSTLETCTIDVRGEVRPGVEICIGPARLMNQDFLKNVRFSYCDGAVVATHPAGRTALEHHHHHH,not soluble
4,MQEKAVVLDDQMIRRALTRISHEIVERNKGVDNCVLVGIKTRGIFIAQRLAERIGQIEGKEMEVGELDITLYRDDLTLQSKNKEPLVKGSDIPVDITKKKVILVDDVLYTGRTVRAAMDALMDLGRPSQIQLAVLVDRGHRELPIRADYVGKNIPTSSEERIEVDLQETDQQDRVSIYDK,soluble
5,MQEKIYQVAVGLIPGVGAATTKTLISYCGCAEQIFKTPKGKLKNIPGIGAVTVDNIYSASVLHEAESIVERAQKLDTQLLFYTDPDYPNRLKQIPDAPTLLYYKGSSALNPPKSIAIVGTRKATEYGRSVVRKLLEEIASYKPLVVSGLAYGIDIQAHRDALELGLETIGVMANGTNIIYPSVHKNTALKMLEQGGLLSEYTFDSIAEPMRFPARNRIIAGMTDATIVIEATQSGGALITAEIADSYDREVLAVPGRITDMASEGCNNLIKQNKAHALTSAADLIELLNWDITPSQQAHKHIILADLEEDELMIYAVLTDNEGIHIDELSWKSQLSMQKISSVLLEMEFKGIVKALPGKKFSLR,not soluble
6,MQELKVPSVGESIVEVEIGAWLKGEGESFAQDEPLVELITDKATLELPAPFAGTLKQILKRTGETARVGEAIALLEEGRAEAAPKAQAPAEAPKEPSPEPLAMPAAERLMQEKGVSPAEVQGTGLGGRILKEDVMRHLEERAPAKPQEAPPPPPPSRPAPPPSTPPQPPADKPWRVSEAVPMTPLRRRIAERLLMVRQTTAMLTTFNEADMSAVIALRKEFGEAFQKKYGVKLGFMSFFVKAVVQALKEIPELNAEIRDNHIVYHRYYDIGIAVGGGEGLVVPVIRDADRLSFAEIEQKIADFAERARTKKLKPEELMGGTFTITNGGIYGSLNSTPLLNPPQVGILGMHAIQERPVVRDGQVVIRPMMYLALSYDHRIVDGREAVTFLRRVKELIENPARLLLEV,soluble
7,MQGEDTIMKTTELKLVYFSPTGTTRRVIMEAARQIDLKSVSFDLSVHKEKKPVLQFDETDFVLFGIPVYSGRVPETFLSYFETLKGNNTPAALIATYGCRAYEDALLELKTEVENRGFHVIGAGAFPTEHSIVRSIGLSRPNKADLKTISEFGIALNRRIKNEDLSALSIQVPGNTPYRKYAKTPLIPKADVSLCTECKACVKSCPAGAISAQDPKKTDKKKCISCLRCVRSCKQKARSVSSMKLSMAAKKLNKVCQSDKAADIFL,not soluble
8,MQGKLNCEIEMEVQIFTHKNCVECNMLLEYLENKGLLGKVKIIDTELYPFLAFEKGVISTPSIFIDGKLVYAGIVDFEEFERILSGQKVTKQIDKASLVEKLMLGIVDSFAATAWLYINRDFDSFLAQKDFVMAVTGLSLLDEREGDEYYNYLRNVMVKEGDRYLEEWKPRMLRNISSNFIREIFWLYERKISKETLTQKYPVEVFAHWLMIRSGAVGRVGLRIYPLSDSTVMKRVLEAYNFMLENYDEIFNKVQKEQMELKTKNKEQVRYLQL,soluble
9,MQGLELPQSYFNAAAKRQKYAMKPGLSALEKNAVIKAAYRQIFERDITKAYSQSISYLESQVRNGDISMKEFVRRLAKSPLYRKQFFEPFINSRALELAFRHILGRGPSSREEVQKYFSIVSSGGLPALVDALVDSQEYADYFGEETVPYLRGLEHHHHHH,not soluble
